In the Immune Epitope Database (IEDB):

Assays:
Assay in all cases: IEDB peptide-MHC binding, purified MHC/competitive/radioactivity; filed as Kd, often an IC50 or EC50 that approximates it; ≥ and ≤ were set here for values at or beyond the usual limits of such assays
[1] = molecular target: HLA-B*45:01
[2] = molecular target: HLA-B*18:01
[3] = molecular target: HLA-B*40:01
[4] = molecular target: HLA-B*44:03
[5] = molecular target: HLA-B*40:02
[6] = molecular target: HLA-B*44:02
[7] = molecular target: HLA-A*02:06
[8] = molecular target: HLA-A*68:02
[9] = molecular target: HLA-A*02:02; details: source organism: Lassa virus Josiah
[10] = molecular target: HLA-A*02:03; details: source organism: Lassa virus Josiah
[11] = molecular target: HLA-A*02:01; details: source organism: Homo sapiens
[12] = source organism: SARS coronavirus Tor2
[13] = source organism: Lassa virus Josiah
[14] = source organism: Mammarenavirus brazilense

Sequence	Kd [1, 12] [µM]	Kd [2, 12] [µM]	Kd [3, 12] [nM]	Kd [4, 12] [µM]	Kd [5, 12] [nM]	Kd [6, 12] [µM]	further results
RERVNINIVG	1.63	≥ 70.5	4910	6.74	143	7.9	–
REVKTIKVF	6.75	4	219	0.0878	54.3	0.103	–
RLLGTFTWTL	–	–	–	–	–	–	Kd [7, 13]: 7.55 nM; Kd [8, 13]: ≥ 5000 nM; Kd [9]: 117 nM; Kd [10]: 106 nM
SDHLLSEML	–	–	–	–	–	–	Kd [1, 14]: ≥ 77.7 µM; Kd [2, 14]: ≥ 77.5 µM; Kd [3, 14]: 5290 nM; Kd [4, 14]: ≥ 78.1 µM; Kd [5, 14]: 2260 nM; Kd [6, 14]: ≥ 26.9 µM
SDYDYYRYNL	≥ 25	≥ 70.5	≥ 69600	9.73	≥ 51600	12.4	–
SEYDYVIFT	0.0114	3.27	998	0.0251	34	0.125	–
SSVLLWMASV	–	–	–	–	–	–	Kd ([8]; source organism: Dengue virus 1 Singapore/S275/1990): 45.2 nM
TLENERGEL	–	–	–	–	–	–	Kd ([7]; source organism: Homo sapiens): ≥ 45600 nM; Kd ([8]; source organism: Homo sapiens): ≥ 21500 nM; Kd [11]: ≥ 28.6 µM
VEFLKDAWEI	4	3.72	965	0.614	77.4	0.641	–
YDYYRYNLPT	15.1	≥ 70.5	≥ 69600	≥ 20.9	≥ 36500	≥ 24.8	–
YEGNSPFHPL	≥ 42.7	12.3	46.2	16.8	12.2	8.1	–
